According to patent US20250255816A1, “POLYSULFIDE MICROPARTICLES AND USES THEREOF” (Vanderbilt University, priority 2022, published 2025):

Legend:
[1] = system: retinal reactive oxygen species (ROS); assay: Retinal ROS levels by Amplex Red dye in mouse MOM model of glaucoma; design: species or system C57/B16 mice; conditions: intravitreal injection, 6 weeks post-MP injection, ex vivo
Method: (§1) Poly(propylene sulfide-co-ethylene sulfide) (PPSES) was synthesized using ring opening polymerization with an equimolar feed of each monomer. EPO-loaded MPs were formulated by first producing EPO-loaded dextran nanoparticles and loading these into PPSES MPs. The S/O/W technique was used to load EPO. To establish the microbead occlusion model (MOM, FIG. 10) of glaucoma, polystyrene beads were injected into the anterior chamber of C57/B16 mice. Saline-injected mice served as healthy controls. After 1 week, phosphate buffered saline (PBS)-free EPO, blank MPs, or EPO-loaded MPs were injected intravitreally. At 6 weeks post-MP injection, electroretinograms (ERGs) and visual evoked potential (VEP) tests were performed intravitally. Retinal tissue was evaluated ex vivo for EPO and ROS levels using ELISA and Amplex Red dye, respectively.

[2] = free protein, intravitreal; cited from earlier work
[3] = Retinal EPO levels by ELISA in mouse microbead occlusion model (MOM) of glaucoma; design: species or system C57/B16 mice; conditions: intravitreal injection, 6 weeks post-MP injection, ELISA of retinal tissue ex vivo
Method: as §1

## Erythropoietin [EPO]
[1]
  retinal ROS levels: Both groups outperformed free EPO
[2]
  half-life intravitreally: ~72 h
[3]
  retinal EPO levels (sustained EPO release): not different from PBS animals
